Four compounds from paper PMC9304779, “Biochemical characterization of the first step in sulfonolipid biosynthesis in Alistipes finegoldii” (The Journal of Biological Chemistry, 2022) can be followed below.

The target of test [1] is T1, SulA (cysteate acyl-ACP transferase) (Alistipes finegoldii, UniProt I3YKQ4).
T1 construct: gene Alfi_1224
T1 sequence (I3YKQ4 1-423): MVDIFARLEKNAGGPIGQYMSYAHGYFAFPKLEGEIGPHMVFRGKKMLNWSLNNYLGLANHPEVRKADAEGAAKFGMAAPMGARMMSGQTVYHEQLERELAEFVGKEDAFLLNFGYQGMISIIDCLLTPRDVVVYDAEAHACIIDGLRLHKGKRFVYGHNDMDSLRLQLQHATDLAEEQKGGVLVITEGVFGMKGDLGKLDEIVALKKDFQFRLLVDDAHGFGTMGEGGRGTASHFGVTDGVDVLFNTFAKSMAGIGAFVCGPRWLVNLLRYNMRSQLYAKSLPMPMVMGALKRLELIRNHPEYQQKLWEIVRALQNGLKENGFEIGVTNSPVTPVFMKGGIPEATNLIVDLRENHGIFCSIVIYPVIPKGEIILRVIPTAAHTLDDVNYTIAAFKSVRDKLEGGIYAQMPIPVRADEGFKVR
Nature of the test: X-ray crystal structure […] Å (SeMet-SulA); UV-Vis […] nm internal aldimine. It is filed as binding. To be noted: covalent, internal aldimine at Lys251.

The target in test [2] is T1, SulA (cysteate acyl-ACP transferase). Nature of the test: UV-Vis spectral titration (external aldimine, A430). The class given is binding.
The target of test [3] is T2, SulA (cysteate acyl-ACP transferase) (Alistipes finegoldii, UniProt I3YKQ4, K281A).
T2 construct: gene Alfi_1224
T2 sequence (I3YKQ4 1-423 K281A): T1 sequence (I3YKQ4 1-423)
The test is described as above. The class given is binding. From the text: UV-Vis spectral titration (external aldimine, A430) on SulA (cysteate acyl-ACP transferase) | SulA(K281A) bound cysteate and formed the PLP-cysteate external aldimine normally

Test [4] concerns the target cysteate acyl-ACP transferase (SulA), His-tagged (Alistipes finegoldii) (UniProt I3YKQ4).
Test [5] shares this target. Nature of the test: AUC; sedimentation velocity, 150 mM NaCl, 1 mM DTT, 20 mM potassium phosphate buffer, pH 7.5, 20 °C, 50,000 rpm, interference optics, c(s) in SEDFIT.
The target is the same in test [6]. The test is described as above. The source holds these as a separate data set.
Test [7] has the same target. Nature of the test: SEC; calibrated HiLoad 16/600 Superdex 200 column, 200 mM NaCl, 20 mM Tris, pH 8.0; single 85 kDa species against standards. A general note: In gel filtration, larger molecules generally elute earlier.

Take `Cc1ncc(COP(=O)(O)O)c(C=O)c1O` [PLP]: the “X-ray crystal structure 2.9 Å (SeMet-SulA); UV-Vis 390 nm internal aldimine” value in test [1] was “definitively identifies Lys251 as the PLP attachment site”. With `N[C@@H](CS(=O)(=O)O)C(=O)O` [cysteate], the Kd (usually a measure of binding affinity in units of concentration) worked out at 4.86 ± 0.08 mM in test [2] and 6.11 ± 1.1 mM in test [3].

For the compound “[14C]16:0-acyl carrier protein (from UniProt P0A6A8 1-78) (natural protein)”, the SulA enzyme activity (formation of 3-keto[14C]capnine, TLC) against 0-200 μM [14C]16:0-ACP with 100 mM cysteate; K0.5 of an allosteric sigmoidal fit in test [4] amounted to 26.7 µM. For the compound “cysteate acyl-ACP transferase (SulA), His-tagged (from UniProt I3YKQ4 1-423) (enzyme)”, the stoichiometry N (commonly the number of molecules, sites or subunits per partner or assembly) in test [5] was found to be 2; in test [6] it was 4; in test [7], 2.
